{"source": "paper PMC5939101", "about": "(Proceedings of the National Academy of Sciences of the …, 2018)", "biological_target": "T1, His-Ivy1 (recombinant wild-type Ivy1) (S. cerevisiae, UniProt Q04934 1-453)", "T1 sequence": "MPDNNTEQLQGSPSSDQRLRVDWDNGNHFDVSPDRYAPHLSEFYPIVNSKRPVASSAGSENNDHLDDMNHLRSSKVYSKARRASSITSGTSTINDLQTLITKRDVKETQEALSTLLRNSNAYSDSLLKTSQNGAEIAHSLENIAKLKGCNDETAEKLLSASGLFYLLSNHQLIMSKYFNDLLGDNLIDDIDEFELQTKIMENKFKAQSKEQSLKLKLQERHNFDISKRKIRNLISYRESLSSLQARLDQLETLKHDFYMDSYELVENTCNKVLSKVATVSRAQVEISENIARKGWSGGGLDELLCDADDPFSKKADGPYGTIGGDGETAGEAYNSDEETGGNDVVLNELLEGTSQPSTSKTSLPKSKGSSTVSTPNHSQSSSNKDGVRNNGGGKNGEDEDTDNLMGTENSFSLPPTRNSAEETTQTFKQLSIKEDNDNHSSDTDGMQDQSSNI", "assay": "pull-down"}
{"binder": "GST-Ypt7 (natural protein) MSSRKKNILKVIILGDSGVGKTSLMHRYVNDKYSQQYKATIGADFLTKEVTVDGDKVATMQVWDTAGQERFQSLGVAFYRGADCCVLVYDVTNASSFENIKSWRDEFLVHANVNSPETFPFVILGNKIDAEESKKIVSEKSAQELAKSLGDIPLFLTSAKNAINVDTAFEEIARSALQQNQADTEAFEDDYNDAINIRLDGENNSCSC", "values": [{"measurement": "binding result", "value": "binds"}]}
